Measurements taken from patent CN116670173A (LAMCAP BIOTEST LTD, dated 2023).

Target: T1, 在MKN-45细胞表面表达的人CD47 (human, UniProt Q08722 19-323)
T1 construct: whole, on cells; MKN-45 cells also carry CEACAM5; also called hCD47; CD47 on MKN-45 cells
Assay: CD47/SIRPα blocking assay on MKN-45 cells, SIRPα-mouse Fc 50 ng/mL, imaging (CX5)

T1 sequence (Q08722 19-323): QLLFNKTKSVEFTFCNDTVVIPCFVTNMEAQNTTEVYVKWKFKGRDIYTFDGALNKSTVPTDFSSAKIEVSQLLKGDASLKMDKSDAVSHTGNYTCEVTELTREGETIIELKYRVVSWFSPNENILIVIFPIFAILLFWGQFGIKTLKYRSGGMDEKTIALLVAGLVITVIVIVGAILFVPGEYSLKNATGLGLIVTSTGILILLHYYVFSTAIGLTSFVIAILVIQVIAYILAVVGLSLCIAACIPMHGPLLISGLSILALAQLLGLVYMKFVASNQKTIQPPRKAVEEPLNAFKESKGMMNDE

| IC50 [nM] | Binder |
| --- | --- |
| 0.04 | K2AC84 (bispecific antibody, human IgG1, kappa, lambda, kappa-lambda body, human IgG1; Common heavy chain and CD47 light chain tied by embodiment language only; also called CD47xCEACAM5双特异性抗体K2AC84; CEACAM5xCD47双特异性抗体) heavy: not shown light 1: QSVLTQPPSVSAAPGQKVTISCSGSSSNIGIGLVSWYQQLPGTAPKLLIYNVNTRPSGIPDRFSGSKSGTSATLGITGLQTGDEADYYCGTWDFSYRVDFGGGTKLTVLGQPKAAPSVTLFPPSSEELQANKATLVCLISDFYPGAVTVAWKADSSPVKAGVETTTPSKQSNNKYAASSYLSLTPEQWKSHRSYSCQVTHEGSTVEKTVAPTECS light 2: not shown |
| 1.2 | K2AC22 (bispecific antibody, human IgG1, kappa, lambda, Comparator from WO2019234576; also called 现有技术的双特异性CEAxCD47抗体K2AC22) heavy: not shown light 1: QSVLTQPPSVSAAPGQKVTISCSGSSSNIANGIVSWYQQLPGTAPKLLIYFDNLRPSGIPDRFSGSKSGTSATLGITGLQTGDEADYYCGTWDFSYGIVFGGGTKLTVLGQPKAAPSVTLFPPSSEELQANKATLVCLISDFYPGAVTVAWKADSSPVKAGVETTTPSKQSNNKYAASSYLSLTPEQWKSHRSYSCQVTHEGSTVEKTVAPTECS light 2: not shown |
| 0.09 | K2AC100 (bispecific antibody, human IgG1, kappa, lambda, kappa-lambda body, human IgG1; Common heavy chain and CD47 light chain tied by embodiment language only; also called CD47xCEACAM5双特异性抗体K2AC100; CEAxCD47双特异性抗体K2AC100) heavy: not shown light 1: QSVLTQPPSVSAAPGQKVTISCSGSSSNIGYGLVSWYQQLPGTAPKLLIYNGNIRPSGIPDRFSGSKSGTSATLGITGLQTGDEADYYCGTWDFSYRVDFGGGTKLTVLGQPKAAPSVTLFPPSSEELQANKATLVCLISDFYPGAVTVAWKADSSPVKAGVETTTPSKQSNNKYAASSYLSLTPEQWKSHRSYSCQVTHEGSTVEKTVAPTECS light 2: not shown |
| 0.05 | K2AC91 (bispecific antibody, human IgG1, kappa, lambda, kappa-lambda body, human IgG1; Common heavy chain and CD47 light chain tied by embodiment language only; also called CD47xCEACAM5双特异性抗体K2AC91; CEACAM5xCD47双特异性抗体) heavy: not shown light 1: QSVLTQPPSVSAAPGQKVTISCSGSSSNIGIGLVSWYQQLPGTAPKLLIYTVNNRPSGIPDRFSGSKSGTSATLGITGLQTGDEADYYCGTFDFSYGIVFGGGTKLTVLGQPKAAPSVTLFPPSSEELQANKATLVCLISDFYPGAVTVAWKADSSPVKAGVETTTPSKQSNNKYAASSYLSLTPEQWKSHRSYSCQVTHEGSTVEKTVAPTECS light 2: not shown |
| 0.08 | K2AC117 (bispecific antibody, human IgG1, kappa, lambda, kappa-lambda body, human IgG1; Common heavy chain and CD47 light chain tied by embodiment language only; also called CD47xCEACAM5双特异性抗体K2AC117; K2AC177 (as printed in some legends)) heavy: not shown light 1: QSVLTQPPSVSAAPGQKVTISCSGSSSNIGIGLVSWYQQLPGTAPKLLIYNGNVRPSGIPDRFSGSKSGTSATLGITGLQTGDEADYYCGTWDFSYRVDFGGGTKLTVLGQPKAAPSVTLFPPSSEELQANKATLVCLISDFYPGAVTVAWKADSSPVKAGVETTTPSKQSNNKYAASSYLSLTPEQWKSHRSYSCQVTHEGSTVEKTVAPTECS light 2: not shown |
| 0.07 | K2AC82 (bispecific antibody, kappa-lambda body, human IgG1, one arm for each target; Common heavy chain and CD47 light chain are tied to the antibodies of the invention by embodiment language only; also called CD47xCEACAM5双特异性抗体K2AC82; CEACAM5xCD47双特异性抗体; not shown: lambda constant domain; probably S) heavy: not shown light 1: QSVLTQPPSVSAAPGQKVTISCSGSSSNIGYGLVSWYQQLPGTAPKLLIYGINKRPSGIPDRFSGSKSGTSATLGITGLQTGDEADYYCGTWDFSYRVDFGGGTKLTVL light 2: not shown |
